The assay addresses Recombinant human LILRB4 protein (ECD, hFc Tag) (human) (UniProt Q8NHJ6). Kind of assay: BLI.
UniProt Q8NHJ6, sequence (Q8NHJ6 22-259): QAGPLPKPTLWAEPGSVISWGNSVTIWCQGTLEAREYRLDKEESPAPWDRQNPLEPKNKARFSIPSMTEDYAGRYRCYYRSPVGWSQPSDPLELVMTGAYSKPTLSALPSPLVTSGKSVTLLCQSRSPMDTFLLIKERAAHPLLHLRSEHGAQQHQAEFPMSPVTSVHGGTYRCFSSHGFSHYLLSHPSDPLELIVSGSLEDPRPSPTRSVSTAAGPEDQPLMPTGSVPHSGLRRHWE

Broadly, the Kd is the constant that tells how readily two partners part at equilibrium. What is called koff is the first-order rate constant of dissociation. “Recombinant human Galectin 8/LGALS8 protein (from UniProt O00214 1-317) (natural protein)”: the dissociation constant Kd was determined as 1020 nM and the koff was 0.131 s⁻¹.

The values are drawn from paper PMC10829871.
